# From patent publication US20250002563A1 (UNIVERSITY OF PITTSBURGH OF THE COMMONWEALTH SYSTEM OF …, published 2025)
# B1: 5p-168 (VHH)
# VHH: DVQLVESGGGLVQAGASLRLSCVVSGVTFSTYGMAWFRQAPEKQRTFVATITREDTTFYADSVKGRFTISRDNAKNTVYLQMNSLKLEDTAVYYCAVRRDSSWGYSRDLFEYDDWGQGTQVTVSS
# B2: 4P-10 (VHH)
# VHH: HVQLVESGGGLVQAGDSLRLSCTASGRTFSAYGMGWFRQAPGKEREFVAGIARSGSEYYGDSVKGRFTISRDNAKNTVYLQMASLKAEDTGVYYCAADPTILYHAISQRTQNYRYWGPGTQVTVSS
# B3: 4P-9 (VHH)
# VHH: QVQLVESGGGLVQAGDSLRLSCTASGRTFSAYGMGWFRQAPGKEREFVAGIARSGSEYYGDSVKGRFTISRDNAKNTVYLQMASLKAEDTGVYYCAADPTILYHAISQRTQNYRHWGPGTQVTVSS
# B4: 5p-24 (VHH)
# VHH: DVQLVESGGGLVQAGDSLRLSCTASGLTFSAYGMGWFRQAPGKEREFVAGIARSGSEFYGDSVKGRFTISRDNAKNTVYLQVNSLRPEDTALYYCAADRTILYHAISQRTQNYQYWGPGTQVTVSS
# B5: 4P-3 (VHH)
# VHH: DVQLVESGGGLVQAGDSLRLSCAASGRTFGNYVLDWFRQAPGKEREFVASITQTGFGTYYADAVKGRFTISRDNAKNTMYLQMNSLKPEDTAVYYCAADFTAQNGGIRNPTYWGQGTQVTVSS
# B6: 4P-4 (VHH)
# VHH: DVQLVESGGGLVQAGDSLRLSCAASGRTFGNYVLDWFRQAPGKEREFVASITQTGFGTYYADAVKGRFTISRDNAKNTMYLQMNSLKPEDTAVYYCAADFTAQNRGIRIPRYWGQGTQVTVSS
# B7: 4P-5 (VHH)
# VHH: DVQLVESGGGLVQAGGSLRLSCAASGRTFGNYVLDWFRQAPGKEREFVASITQTGFGTYYADAVKGRFTISRDNAKNTMYLQMNSLKPEDTAVYYCAADFTVQNGGIRNPTYWGQGTQVTVSS
# B8: 5p-179 (VHH)
# VHH: HVQLVESGGGLVQAGGSLRLSCAASGTISTLNAMGWYRQAPGKQRELLASISNLGTTYHADSVAGRFTISRGSAKNTVNLQMNSLKPDDTAVYYCNTRVLEGGTQIRDYWGQGTQVTVSS
# notes: class IV psNb
# B9: 5p-99 (VHH)
# VHH: HVQLVESGGGSVQPGGSLRLSCAASGLTLDHYAVGWFRQAPGKEREGVSCISSSTGSAYYADSVKGRFTISRDNAKNMMYLEMNSLKPEDTAVYYCATDLLRRMLPGSSWWCLNQNDFGSWGQGTQVTVSS
# B10: 5p-162 (VHH)
# VHH: DVQLVESGGGFVQAGGSLRLSCADSGLTRSVWPMGWFRQAPGKEREFVAGIAWSGERQSYADFVKGRFTVSRDNARNTVYLQMNSLKPEDTAVYYCAAPTSGVFGRTYAPTATSSYDSWGQGTQVTVSS
# B11: 5p-10 (VHH)
# VHH: QVQLVESGGGLVQAGGSLRLSCAASGRTFSSSAMGWFRQAPGKDREFVAAISPSSTNTGYTDSVKGRFTISRDNTKNTVDLQMNNLKPEDTAIYYCAADANSLRYGYSQNQGRYEYWGQGTQVTVSS
# B12: 4P-84 (VHH)
# VHH: HVQLVESGGGLVQAGGSLRLSCAVSGRTVSTYGMGWFRQAPGKERDFVATITRSGGTTLYADSVKGRFTISRDNAKNTVYLQMNSLKIEDTAVYYCAVRRDSSFGYSRDSFEYDDWGQGTQVTVSS
# B13: 4P-86 (VHH)
# VHH: DVQLVESGGGLVQAGGSLRLSCAVSGRTVSTYGMAWFRQAPGKEREFVATITRSEGTTFYADSVKGRFTISRDNAKNTVYLQMNSLKIEDTAVYYCAVRRDSSWGYSRDSFEYDDWGQGTQVTVSS
# B14: 5p-169 (VHH)
# VHH: DVQLVESGGGLVQAGGSLRLSCLVSGLTFSTYGMGWFRQAPGKEREFVAQITRSGSPTLYADSVKGRFTISRDNAKNTMYLQMNSLKIEDTAVYYCAVRRDSSWGYSRDSFEYDYWGQGTQVTVSS
# B15: 5p-82 (VHH)
# VHH: HVQLVESGGGLVQAGESLRLSCVDSKRTGSRWPMGWFRQAPGKEREFVASISWTGSRTYYADSVKGRFTISRDNAENTVFLQMNSLKPEDTAVYYCAAAHARVYGANWSSSNRNDYDAWGQGTQVTVSS
# B16: 5p-89 (VHH)
# VHH: EVQLVESGGGLVQAGGSLRLSCEDSKRTGSRWPVGWFRQAPGKEREFVASISWTGSRTYYADSVKGRFTISRDNAENTVFLKMNSLKPEDTAVYYCAAAQTRVYGANWSSSNRDDYDAWGQGTQVTVSS
# B17: 5p-171 (VHH)
# VHH: QVQLVESGGGLVQTGGSLRLSCAASGRTFSTYTMGWFRQAPGKEREFVAAITPTGYGTKSADSVKGRFIISRDNPKNTVYLQMNNLKPEDTAVYYCAARSGTITNQDQYDFHYWGQGTQVTVSS
# B18: 5p-78 (VHH)
# VHH: HVQLVESGGGLVQAGGSLRLSCAAAARFSTSAMGWFRQAPGKEREFVAAVSWSNTNIHYADTVKGRFTISADTAKETVYLQMNSLKPDDTAVYYCAQGGWGLTQPIIVDYWGKGTQVTVSS
# B19: 5p-126 (VHH)
# VHH: QVQLVESGGGLVQAGGSLRLSCAAAARFSTSAMGWFRQAPGKEREFVAAVSWSNTNTHYADTVKGRFTISADTAKETVYLQMNSLKPEDTAVYYCAQGGWGLTQPIIVDYWGKGTQVTVSS
# B20: 5p-156 (VHH)
# VHH: EVQLVESGGGLVQAGDSLRLSCVASGRTFTTSIMGWFRQAPGKEREFVAAIARNGVSTFYADSVKGRFTASRDNAKNTLYLQMNSLKPEDTGVYYCAAKPRGVGLTDRISDYDYWGQGTQVTVSS
# B21: 5p-176 (VHH)
# VHH: EVQLVESGGRLVQAGGSLRLSCAASGRTFSTYTMAWFRQAPGKEREFVAGIARNGDTAYYSDSVKGRFTISRDNAKNEVSLQMNSLKPEDTAVYTCAARSVVQLEVVLNNPIHFEYWGQGTQVTVSS
# B22: 5p-4 (VHH)
# VHH: QVQLVESGGGLVQAGASLRLSCAASGRTFTNSHMGWFRQAPGKERDFVAVISRSGGSTLYADSVKGRFTISRDNAKNTVYLQMNTMKPEDTAVYYCAGARTAGLTSNPSLYDYWGQGTQVTVSS
# B23: 5p-180 (VHH)
# VHH: QVQLVESGGGLVQAGGSLRLSCVASGTISTLNAMGWYRQAPGKQRELLTSISNLGTTYSADSVKGRFTISRGNAKNTVYLQMDSLKPDDTAVYYCNTRVLEGTEYRDYWGQGTQVTVSS
# B24: 5p-98 (VHH)
# VHH: QVQLVESGGGLVQPGGSLRLSCAASGRTLSNYAMGWFRQAPGKEREFVAVIRQRTGMRSYTYYADSVEGRFTISGDGAKMTVSLQMNSLKPEDTAVYYCAIDLIDDYKSTYYYSTQPSSYDYWGQGTQVTVSS
# B25: 5p-174 (VHH)
# VHH: HVQLVESGGGLVQTGASLRLSCKASGRTFSTYTISWFRQAPGKEREFVGGVATSGGTTYYGDSVQGRFTISRDNAKNEVYLQMNSVKPEDTAVYICAARSVIQDTVVISNPIHFEYWGQGTQVTVSS
# B26: 5p-6 (VHH)
# VHH: DVQLVESGGGLVQAGGSLRLSCAASGSTFSGNAIGWYRQAPGKQRELVATINAPGSTDYAESVKGRFTISRDNAKNTVFLQMNSLKPEDTAVYYCNVCKFLLSVLCHPGQDYWGQGTQVTVSS
# B27: 5p-164 (VHH)
# VHH: DVQLVESGGGLVKTGDSLRLSCAVSGGTFGSYGMAWFRQAPGKEREIVASIGRTGRTTDYADSVKGRFSIARDNAKNTVYLQMNNLKPEDTAVYYCAARIFSLNYALIGRDTNINYWGQGTQVTVSS
# B28: 5p-93 (VHH)
# VHH: QVQLVESGGGLVQPGGSLRLSCAASGFTFNRYAMSWVRQAPGKGREWVSGIYSDGSETYYTESVKGRFTISRDNAKNMLYLQMNSLKPEDTALYYCAKDENAHEDYFNSGFDRKYDYWGQGTQVTVSS
# notes: class III psNb
# B29: 5p-16 (VHH)
# VHH: DVQLVESGGGLVQAGGSLRLSCLASGRTFSNYAMAWFRQSPGKEREFVAVITSGRSTDYADSVKGRFTISRDNAKNTVYLQMNSLKPEDTAVYYCAADQAPLRFSYSLSRDKYDYWGQGTQVTVSS
# B30: 5p-74 (VHH)
# VHH: DVQLVESGGGLVQAGGSLRLSCAASGGTSRRYTMGWFRQAPGKEREFVSAISNTGATISGANSMEGRFTISRDNAKNTVYLQMNSLKPEDTAVYYCAATSRGWSIGMTYDYWGQGTQVTVSS
# Columns and labels:
# [1] = biological target: RBDSARS-CoV-2 (SARS-CoV-2 S protein residues 319-539, C-terminal His-tag) (SARS-CoV-2, UniProt P0DTC2 319-539); assay: ELISA
# [2] = biological target: RBDSARS-CoV (SARS-CoV S protein residues 318-510, C-terminal His-tag) (SARS-CoV, UniProt P59594 318-510); assay: ELISA
binder,measurement,setting,value
B1,IC50,[1],< 10 nM
same,IC50,[2],< 10 nM
B2,IC50,[1],< 10 nM
same,IC50,[2],100 to 1000 nM
B3,IC50,[1],< 10 nM
same,IC50,[2],100 to 1000 nM
B4,IC50,[1],< 10 nM
same,IC50,[2],< 10 nM
B5,IC50,[1],10 to 100 nM
same,IC50,[2],1000 to 8000 nM
B6,IC50,[1],10 to 100 nM
same,IC50,[2],100 to 1000 nM
B7,IC50,[1],10 to 100 nM
same,IC50,[2],100 to 1000 nM
B8,IC50,[1],< 10 nM
same,IC50,[2],> 8000 nM
B9,IC50,[1],< 10 nM
same,IC50,[2],1000 to 8000 nM
B10,IC50,[1],10 to 100 nM
same,IC50,[2],10 to 100 nM
B11,IC50,[1],< 10 nM
same,IC50,[2],10 to 100 nM
B12,IC50,[1],< 10 nM
same,IC50,[2],< 10 nM
B13,IC50,[1],< 10 nM
same,IC50,[2],< 10 nM
B14,IC50,[1],< 10 nM
same,IC50,[2],< 10 nM
B15,IC50,[1],10 to 100 nM
same,IC50,[2],10 to 100 nM
B16,IC50,[1],10 to 100 nM
same,IC50,[2],10 to 100 nM
B17,IC50,[1],< 10 nM
same,IC50,[2],10 to 100 nM
B18,IC50,[1],< 10 nM
same,IC50,[2],< 10 nM
B19,IC50,[1],< 10 nM
same,IC50,[2],< 10 nM
B20,IC50,[1],< 10 nM
same,IC50,[2],10 to 100 nM
B21,IC50,[1],< 10 nM
same,IC50,[2],< 10 nM
B22,IC50,[1],< 10 nM
same,IC50,[2],10 to 100 nM
B23,IC50,[1],< 10 nM
same,IC50,[2],> 8000 nM
B24,IC50,[1],< 10 nM
same,IC50,[2],10 to 100 nM
B25,IC50,[1],< 10 nM
same,IC50,[2],< 10 nM
B26,IC50,[1],< 10 nM
same,IC50,[2],10 to 100 nM
B27,IC50,[1],< 10 nM
same,IC50,[2],10 to 100 nM
B28,IC50,[1],< 10 nM
same,IC50,[2],> 8000 nM
B29,IC50,[1],< 10 nM
same,IC50,[2],10 to 100 nM
B30,IC50,[1],< 10 nM
same,IC50,[2],< 10 nM
